Results: US8741844B2, “Use of mutated antithrombins for treating or preventing coagulation disorders” (Universite Paris-Sud XI, priority 2007, dated 2014)
Where a chain is given by its changes, count along the chain named. Names may count otherwise.

Key:
[1] = system: pentasaccharide bound plasma antithrombin (plasma anti-factor Xa activity); test: Rotachrom heparin anti factor Xa assay in pentasaccharide containing human plasma (competition with plasma antithrombin for pentasaccharide binding); assay type: biochemical; details: for virtual pentasaccharide concentration (residual anti-factor Xa activity): human plasma pool with 3 μg/ml pentasaccharide; for effect on anti-Xa activity of pentasaccharide containing plasma sample: human plasma, pre-incubation 30 min at 37° C.
Experimental: Anti factor Xa inhibitory activity of mutated antithrombins AT-R393H(SEQ ID NO: 4), AT-Pro394 (SEQ ID NO: 6), AT-ΔR393-5394 (SEQ ID NO: 18), AT-ΔR393 (SEQ ID NO: 8), AT-ΔS394 (SEQ ID NO: 10), AT-N135Q-R393H(SEQ ID NO: 14), AT-N135Q-Pro394 (SEQ ID NO: 16), AT-N135Q-ΔR393-S394 (SEQ ID NO: 24), AT-N135Q-ΔR393 (SEQ ID NO: 20), AT-N135Q-ΔS394 (SEQ ID NO: 22) is measured in pentasaccharide containing plasma. The plasma concentrations of pentasaccharides are defined on the basis on those measured in patients treated by the pentasaccharide under the conditions of a regular (curative) use of this molecule or in patients presenting an overdose of this drug, knowing that the optimal equilibrium concentration is 1.20-1.26 mg/L and the minimal equilibrium concentration is 0.46-0.62 mg/L during a curative pentasaccharide treatment (monograph, Arixtra®).
The anti factor Xa assay is performed using the Rotachrom® heparin method (Stago) adaptated for absorbance reading on a microplate reader (Dynatech MR 5000), or a STA analyser (Stago).
The procedure consists in mixing 30 μl of pentasaccharide containing plasma sample diluted four times in kinetic buffer, with 75 μl of chromogenic substrate (1 mM, provided in Rotachrom® heparin kit). After 4 min incubation, 75 μl of bovine factor Xa (24 nM, Rotachrom® heparin kit) is added to the plasma-substrate mixture. The factor Xa activity is measured a 405 nm absorbance increase, resulting from cleavage of the chromogenic substrate, using a microplate reader (Dynatech MR 5000). The rate constant (k), proportional to anti-factor Xa activity, is obtained by fitting the substrate hydrolysis curve to equation (3) or (3′).
Firstly, the assay is calibrated in citrated (0.105 M) normal human plasma containing pentasaccharide concentrations ranging from 0 to 3 mg/L. A standard curve is generated and anti-factor Xa activity is expressed as mg of pentasaccharide per liter of plasma.
Secondly, to evaluate the anti factor Xa inhibitory activity of mutated antithrombins, the mutated antithrombin (0-0.6 g/L, preferably 0.15-0.6 g/L, final concentration, in kinetic buffer) is pre-incubated with an equal volume of pentasaccharide (0-3 mg/L, preferably 1-3 mg/L) containing plasma samples, during 30 min at 37° C.
Under these conditions, the mutated antithrombin concentration range from one to four times that of the plasma antithrombin level, which is compatible with a therapeutic use of antithrombin. Indeed, very high doses of mutated antithrombin, with a 5 fold increase in plasma antithrombin level, have already been used during clinical trials without side effects (Leitner J M, Firbas C, Mayr F B, Reiter R A, Steinlechner B, Jilma B., Recombinant human antithrombin inhibits thrombin formation and interleukin 6 release in human endotoxemia. Clin Pharmacol Ther. 2006 January; 79(1):23-34). Anti factor Xa inhibitory activity is then evaluated as previously described.
To estimate whether mutated antithrombin can be used as reversal of pentasaccharide in case of over-dosing, AT-N135Q-R393H(SEQ ID NO: 14) and AT-N135Q-Pro394 (SEQ ID NO: 16) are tested in Rotachrom® heparin assay for their ability to restore factor Xa activity. Under conditions of treatment for prevention of venous thromboembolic events, optimal pentasaccharide concentration ranges between 1.2 and 1.26 μg/mL in plasma. To mimic an over-dosing, pentasaccharide is added to human plasma pool at concentration of 3 μg/ml. Rotachrom® heparin assay is then performed by incubation of plasma over-dosed with pentasaccharide in the presence of mutated antithrombin in a ratio 1/1, 2/1, and 4/1 compared to plasma antithrombin concentration (i.e. 0.15, 0.3, 0.6 g/l). In this ex vivo assay, anti-factor Xa activity is proportional to the amount of pentasaccharide bound natural antithrombin present in tested plasma, which amount is directly proportional to pentasaccharide concentration in plasma. […]

[2] = system: pentasaccharide bound plasma antithrombin (plasma anti-factor Xa activity), HUVEC surface; test: Rotachrom heparin anti factor Xa assay after pre-incubation of pentasaccharide containing plasma-mutated antithrombin mixture on HUVEC surface; assay type: cell-based, human; details: for virtual pentasaccharide concentration (residual anti-factor Xa activity): 3 μg/mL pentasaccharide
Experimental: Finally to evaluate effect of mutated antithrombin on anti-factor Xa activity in conditions as close as possible to in vivo conditions, Rotachrom® heparin method is used to test anti-factor Xa activity in plasma pre-incubated with mutated antithrombin (0-0.6 g/L, preferably 0.15-0.6 g/L in kinetic buffer), during 30 min at 37° C. on human umbilical vein endothelial cells (HUVEC) in culture. Cells are inoculated at 20 000 cells/cm^2 in 96 well plate and grown to confluence for 24 hours in EGM-2 media (Clonetics, Cambrex). After two wash with phosphate buffer saline (Gibco, Invitrogen) cells are starved for 4 hours in EBM-2 media (Clonetics, Cambrex) and then washed again twice in phosphate buffer saline to prevent excess contamination with heparin present in the culture medium. HUVEC coated wells are then used for 30 min incubation of pentasaccharide containing plasma-mutated antithrombin mixture (125 μl/cm^2) before Rotachrom® heparin assay
To evaluate the role of blood-vessel endothelium, or more precisely, the role of glycosamino-glycans exposed on endothelial cell surface, on competition between natural antithrombin and mutated antithrombin for pentasaccharide binding, the same experiment as described above is done but with pre-incubation of pentasaccharide containing plasma-mutated antithrombin mixture on HUVEC surface (FIG. 8).

[3] = system: pentasaccharide bound murine antithrombin (plasma anti-Xa activity); test: Anti factor Xa assay in mouse plasma supplemented with Fondaparinux; assay type: biochemical
Experimental: During the animal experimentation (see detailed protocol below), human mutated antithrombins compete with murine antithrombin for their binding to the pentasaccharide. Thus, preliminary in vitro assays are performed to determine the human mutated antithrombin concentration necessary to compete with the murine antithrombin present in mouse plasma supplemented with Fondaparinux.
These experiments are performed as described in section II-b, using mouse plasma instead of human plasma.

[4] = mutated antithrombin ratio 1/1 to plasma antithrombin (0.15 g/l)

Molecule: AT-N135Q-R393H: human antithrombin with substitution at 393 by Histidine and at 135 by Glutamine
- virtual pentasaccharide concentration (residual anti-factor Xa activity) [1, 4]: 1.04 µg/mL
- virtual pentasaccharide concentration (residual anti-factor Xa activity) ([1]; ratio 2/1 (0.3 g/l)): 0.49 µg/mL
- virtual pentasaccharide concentration (residual anti-factor Xa activity) ([1]; ratio 4/1 (0.6 g/l)): 0.29 µg/mL
- effect on anti-Xa activity of pentasaccharide containing plasma sample [1]: significant decrease
- virtual pentasaccharide concentration (residual anti-factor Xa activity) ([2]; ratio 1/1): 1.66 µg/mL
- virtual pentasaccharide concentration (residual anti-factor Xa activity) ([2]; ratio 2/1): 0.91 µg/mL
- virtual pentasaccharide concentration (residual anti-factor Xa activity) ([2]; ratio 4/1): 0.26 µg/mL
- effect on anti-Xa activity of pentasaccharide contained in mouse plasma [3]: significant decrease

B1: AT-N135Q-Pro394: human antithrombin with Proline inserted between 393 and 394 and substitution at 135 by Glutamine (protein, listed as Homo sapiens)
chain: HGSPVDICTAKPRDIPMNPMCIYRSPEKKATEDEGSEQKIPEATNRRVWELSKANSRFATTFYQHLADSKNDNDNIFLSPLSISTAFAMTKLGACNDTLQQLMEVFKFDTISEKTSDQIHFFFAKLNCRLYRKAQKSSKLVSANRLFGDKSLTFNETYQDISELVYGAKLQPLDFKENAEQSRAAINKWVSNKTEGRITDVIPSEAINELTVLVLVNTIYFKGLWKSKFSPENTRKELFYKADGESCSASMMYQEGKFRYRRVAEGTQVLELPFKGDDITMVLILPKPEKSLAKVEKELTPEVLQEWLDELEEMMLVVHMPRFRIEDGFSLKEQLQDMGLVDLFSPEKSKLPGIVAEGRDDLYVSDAFHKAFLEVNEEGSEAAASTAVVIAGRPSLNPNRVTFKANRPFLVFIREVPLNTIIFMGRVANPCVK
- virtual pentasaccharide concentration (residual anti-factor Xa activity) [1, 4]: 1.16 µg/mL
- virtual pentasaccharide concentration (residual anti-factor Xa activity) ([1]; ratio 2/1 (0.3 g/l)): 0.59 µg/mL
- virtual pentasaccharide concentration (residual anti-factor Xa activity) ([1]; ratio 4/1 (0.6 g/l)): 0.36 µg/mL
- effect on anti-Xa activity of pentasaccharide containing plasma sample [1]: significant decrease
- virtual pentasaccharide concentration (residual anti-factor Xa activity) ([2]; ratio 1/1): 1.69 µg/mL
- virtual pentasaccharide concentration (residual anti-factor Xa activity) ([2]; ratio 2/1): 0.94 µg/mL
- virtual pentasaccharide concentration (residual anti-factor Xa activity) ([2]; ratio 4/1): 0.27 µg/mL
- effect on anti-Xa activity of pentasaccharide contained in mouse plasma [3]: significant decrease

B2: AT-Pro394: human antithrombin with insertion of a Proline between positions 393 and 394 (protein, listed as Homo sapiens)
chain: B1 chain with Q135N
- virtual pentasaccharide concentration at 2 or 4 fold molar excess compared to natural antithrombin ([1]; human plasma with 3 μg/ml pentasaccharide): decreases to a level comparable to curative pentasaccharide treatment
- effect on anti-factor Xa activity at concentration equal to plasmatic antithrombin concentration ([1]; human plasma with 3 μg/ml pentasaccharide, ratio 1/1): significantly decrease
- effect on anti-Xa activity of pentasaccharide containing plasma sample [1]: significant decrease
- effect on anti-factor Xa activity of pentasaccharide ([2]; over-dosing conditions): decreases anti-factor Xa activity
- effect on anti-Xa activity of pentasaccharide contained in mouse plasma [3]: significant decrease
